# Assay results reported in patent US9803013B2, “Biological materials and uses thereof” (BioInvent International AB, priority 2005, dated 2017).
# B1: B11: fully human IgG1 antibody specific for ICAM-1; VH and VL sequences of FIG. 10 (SEQ ID NOs. 6 and 8) (antibody, listed as Homo sapiens, V domains shown)
# VH: EVQLLESGGGLVQPGGSLRLSCAASGFTFSNAWMSWVRQAPGKGLEWVAFIWYDGSNKYYADSVKGRFTISRDNSKNTLYLQMNSLRAEDTAVYYCARYSGWYFDYWGQGTLVTVSS
# VL: QSVLTQPPSASGTPGQRVTISCTGSSSNIGAGYDVHWYQQLPGTAPKLLIYDNNNRPSGVPDRFSGSKSGTSASLAISGLRSEDEADYYCQSYDSSLSAWLFGGGTKLTVLG
# B2: C11: fully human IgG1 antibody specific for surface IgM; VH and VL sequences of FIG. 11 (SEQ ID NOs. 10 and 12) (antibody, listed as Homo sapiens, V domains shown)
# VH: EVQLLESGGGLVQPGGSLRLSCAASGFTFGSYEMNWVRQAPGKGLEWVSVIYSGGSTYYADSVEGRFTISRDNSKNTLYLQMNSLRAEDTAVYYCARDTNPYYYYGMDVWGQGTLVTVSS
# VL: QSVLTQPPSASGTPGQRVTISCSGSSSNIGNNAVNWYQQLPGTAPKLLIYRNNQRPSGVPDRFSGSKSGTSASLAISGLRSEDEADYYCQSYDSSLNGQVFGGGTKLTVLG
# Assays:
# [1] = test system: RPMI-8226 myeloma cells; assay: Advanced disseminated MM model, i.v. grafted RPMI-8226 in SCID mice; type: in vivo, mouse; settings: 2 mg/kg from five days after i.v. grafting; compared to bortezomib, lenalidomide, melphalan or dexamethasone
# From the text: To assess the therapeutic potential of BI-505 for treatment of MM, the anti-myeloma effects of BI-505 were compared to current gold-standard treatment in disseminated experimental models of MM sharing characteristics with human disease. These models resemble the manifestation and progression of human MM disease in many respects, including tumor dissemination and establishment in bone marrow, and the appearance of osteolytic bone-lesions and hypercalcemia (Mitsiades et al., 2003; Yaccoby et al., 1998). Firstly, the anti-myeloma activity of BI-505 was compared with currently used treatments in an advanced disseminated MM model comprising RPMI-8226 myeloma cells. In this model, therapeutic treatment with 2 mg/kg BI-505 was started five days after intravenous grafting of MM cells to allow for homing and establishment of MM cells in bone marrow.
# All studies were conducted in accordance with guidelines of the Lund University Hospital, Sweden or University of Utah, Salt Lake City, USA following approval from the local ethical committee for animal care and use. […] The role of macrophages and NK cells for BI-505 in vivo antitumor activity was assessed using anti-asialo antibody treatment, clodronate liposome treatment or NK-cell deficient mice. […]
# [2] = test system: BJAB; assay: Apoptosis induction by cross-linked IgG (Annexin V/PI); type: cell-based, human; settings: viable cells after 6 hour incubation, crosslinked, compared to control FITC-8 IgG1
# Experimental: (§1) 2×10^5 B lymphoma cells (Raji or Ramos) or Jurkat T cells were incubated with serially diluted and detoxified scFv's in culture medium for 1 h on ice.
# (§2) When whole IgGs were used for apoptosis induction, cross-linking reagent was replaced by goat Fab′2 anti-human Fc γ antibody (Jackson ImmunoResearch) with minimal cross-reactivity with non-IgG antibody isotypes (to avoid unspecific cross-linking of endogenous B lymphoma associated surface immunoglobulins) and incubated, as described above, for 6 h.
# (§3) Apoptotic cells were, unless otherwise stated, detected by combined staining with Annexin V Alexa Fluor 488 (AV) and Propidium Iodide (PI) (both from Molecular Probes, Invitrogen) and subsequent flow-cytometric analysis, Cells were defined as viable (AV−/PI−), early apoptotic (AV+/PI−) or late apoptotic/necrotic (AV+/PI+). AV and PI signals were recorded in the FL1 and FL2 or FL3 channels (as indicated in the text), respectively, using a FACSCalibur instrument (BD Biosciences).
# (§4) • ^aApoptosis Induction; determined by percentage of viable cells after 6 hour incubation with any of the human antibodies, crosslinked with Goat anti-Human (gamma) Fc specific antibody; −, viability not affected; +, 95-80%; ++, 79-60%; +++, 59-40% viable cells compared to control (human FITC-8 IgG1). […] The cell line dependent MFI value of control human FITC-8 IgG antibody was subtracted from the MFI of each human antibody.
# [3] = test system: Rec-1; assay: as above; type: cell-based, human; settings: viable cells after 6 hour incubation, crosslinked, compared to control FITC-8 IgG1
# Experimental: as §1, §2, §3, §4
# [4] = test system: JVM-2; assay: as above; type: cell-based, human; settings: viable cells after 6 hour incubation, crosslinked, compared to control FITC-8 IgG1
# Experimental: as §1, §2, §3, §4
# [5] = test system: SP-53; assay: as above; type: cell-based, human; settings: viable cells after 6 hour incubation, crosslinked, compared to control FITC-8 IgG1
# Experimental: as §1, §2, §3, §4
# [6] = test system: NCEB-1; assay: as above; type: cell-based, human; settings: viable cells after 6 hour incubation, crosslinked, compared to control FITC-8 IgG1
# Experimental: as §1, §2, §3, §4
# [7] = test system: SC-1; assay: as above; type: cell-based, human; settings: viable cells after 6 hour incubation, crosslinked, compared to control FITC-8 IgG1
# Experimental: as §1, §2, §3, §4
# [8] = test system: Granta 519; assay: as above; type: cell-based, human; settings: viable cells after 6 hour incubation, crosslinked, compared to control FITC-8 IgG1
# Experimental: as §1, §2, §3, §4
# [9] = test system: MC/CAR; assay: as above; type: cell-based, human; settings: viable cells after 6 hour incubation, crosslinked, compared to control FITC-8 IgG1
# Experimental: as §1, §2, §3, §4
# [10] = test system: Reh/KM-3; assay: as above; type: cell-based, human; settings: viable cells after 6 hour incubation, crosslinked, compared to control FITC-8 IgG1
# Experimental: as §1, §2, §3, §4
# [11] = test system: mouse, rat, rabbit, and cynomolgus monkey ICAM-1; assay: BI-505 cross-reactivity to ICAM-1 of animal species used for toxicological studies; type: binding; settings: animals commonly used for toxicological evaluation
# From the text: The cross reactivity of BI-505 to mouse, rat, rabbit, and cynomolgus monkey ICAM-1 was investigated using several methods (i.e. immunohistochemistry, flow cytometry, and enzyme-linked immunosorbent assay [ELISA]) and sources of target protein (tissue, ICAM-1 transfected cells, endogenous ICAM-1 expressing cells, and recombinant ICAM-1 protein). Polyclonal anti-mouse ICAM-1, anti-rat ICAM-1, anti-rabbit ICAM-1, and anti-cynomolgus ICAM-1 antibodies were used as positive controls in experiments. Isotype control human IgG1 was used as negative control for BI-505 and species matched polyclonal IgG lacking specificity for ICAM-1 served as negative controls for ICAM-1 specific polyclonal antibodies.
Molecule,survival and disease onset [1],Apoptosis Induction [2],Apoptosis Induction [3],Apoptosis Induction [4],Apoptosis Induction [5],Apoptosis Induction [6],Apoptosis Induction [7],Apoptosis Induction [8],Apoptosis Induction [9],Apoptosis Induction [10],cross-reactivity with animal ICAM-1 [11]
B1,significantly enhanced survival and delayed disease onset,+ (95-80%),−,−,−,+ (95-80%),−,+ (95-80%),+ (95-80%),−,"does not, however, cross-react"
B2,,+ (95-80%),−,−,−,−,−,+ (95-80%),−,−,
